Source: the supplement of paper PMC12042874
± gives the uncertainty stated by the source.

assay: amyloid nucleation score (Sup35N fusion, yeast selection) (log enrichment); library NNK2; higher = more nucleation; inactive = no reads after selection
In short: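 Using DiMSum, nucleation scores were taken as the log enrichment of output over input reads, centred on the mode score of non-aggregating sequences. The input and output reads came from Illumina sequencing of plasmid inserts, with sequences under 100 input reads excluded. The yeast were psi-negative, expressed Sup35N fused to peptides of 20 random codons, were induced with 100 μM copper sulfate for 24 hours, and were grown 7 days at 30°C on medium lacking adenine and uracil.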

**Q.** With SWEKQ as the substance, how does the amyloid nucleation score read?
**A.** inactive

**Q.** With SWLFRYYVERVNDVRG as the substance, how does the amyloid nucleation score read?
**A.** 0.191 ± 0.65

**Q.** With SWVRVTSPSIATFSATYCVL as the substance, how does the amyloid nucleation score read?
**A.** 0.619 ± 0.81

**Q.** With SWYILILGFRGKIIYPFRLG as the substance, how does the amyloid nucleation score read?
**A.** -1.03 ± 0.76

**Q.** Which amyloid nucleation score does the source give for SWYVGLCMYVPWYERRANGH here?
**A.** 11.04 ± 0.067

**Q.** For SYDDGRFGVGCCFIEGYRI, which amyloid nucleation score is on record?
**A.** -1.41 ± 1

**Q.** With SYDFSSINRDKTSSSRSLPR as the substance, how does the amyloid nucleation score read?
**A.** -0.474 ± 1

**Q.** For SYENTSV, which amyloid nucleation score is on record?
**A.** 0.376 ± 0.66

**Q.** With SYFGDFERFSFSCDHER as the substance, how does the amyloid nucleation score read?
**A.** -0.471 ± 0.61

**Q.** Which amyloid nucleation score does the source give for SYFHRWRATNFRTHKEAC here?
**A.** -1.02 ± 0.34

**Q.** With SYGNDNDGTWWS as the substance, how does the amyloid nucleation score read?
**A.** 0.676 ± 0.57

**Q.** For SYHAYRG, which amyloid nucleation score is on record?
**A.** -0.064 ± 0.37

**Q.** With SYLFIDDTVDCQLKERRYPN as the substance, how does the amyloid nucleation score read?
**A.** -0.763 ± 0.62

**Q.** Which amyloid nucleation score does the source give for SYNLETFIFLWKESG here?
**A.** inactive

**Q.** Which amyloid nucleation score does the source give for SYNTRFIASSCSGSY here?
**A.** -1.06 ± 0.76

**Q.** For SYPYFMLRTTLNTLKTWFWM, which amyloid nucleation score is on record?
**A.** -0.403 ± 1

**Q.** Which amyloid nucleation score does the source give for SYTWFSYIWYSLVFLRD here?
**A.** -0.088 ± 0.8

**Q.** Which amyloid nucleation score does the source give for SYYFQAFDYKFLSMVIDAYG here?
**A.** 7.085 ± 0.043

**Q.** With SYYINFISVRILDLNKFNVQ as the substance, how does the amyloid nucleation score read?
**A.** 5.03 ± 0.11

**Q.** With SYYTL as the substance, how does the amyloid nucleation score read?
**A.** inactive

**Q.** For SYYVLRASTELYGFHVFFLR, which amyloid nucleation score is on record?
**A.** -0.017 ± 1

**Q.** Which amyloid nucleation score does the source give for TAALRVILGCMYNIWQMWHR here?
**A.** 1.06 ± 0.57

**Q.** Which amyloid nucleation score does the source give for TALATDTSFRRSRRQTNQIF here?
**A.** 0.706 ± 0.54

**Q.** Which amyloid nucleation score does the source give for TAMFPHVRYSDTSYPAKRAV here?
**A.** -0.947 ± 0.41

**Q.** For TCEYVVN, which amyloid nucleation score is on record?
**A.** -0.659 ± 0.54

**Q.** For TCFEEFLQKFMYCATFMKKM, which amyloid nucleation score is on record?
**A.** -0.403 ± 0.78

**Q.** Which amyloid nucleation score does the source give for TCFVC here?
**A.** 5.746 ± 0.052

**Q.** With TCIVSRRSCTCNRSQSGYRR as the substance, how does the amyloid nucleation score read?
**A.** 1.08 ± 0.22

**Q.** With TCLMVVE as the substance, how does the amyloid nucleation score read?
**A.** 0.539 ± 0.66

**Q.** With TCLTFRFI as the substance, how does the amyloid nucleation score read?
**A.** inactive

**Q.** With TCRHRLHVSFVYDVLRQIVT as the substance, how does the amyloid nucleation score read?
**A.** 0.043 ± 0.21

**Q.** Which amyloid nucleation score does the source give for TCTNLSCTGWKNGVCVCM here?
**A.** 8.536 ± 0.057

**Q.** For TCVKASNRG, which amyloid nucleation score is on record?
**A.** -0.608 ± 0.55

**Q.** With TCVLKVFVL as the substance, how does the amyloid nucleation score read?
**A.** -1.43 ± 1.1

**Q.** With TCVVSTYLINIQKNVASFER as the substance, how does the amyloid nucleation score read?
**A.** 6.816 ± 0.041

**Q.** Which amyloid nucleation score does the source give for TDALANSNRPSKFQVH here?
**A.** -0.059 ± 0.37

**Q.** Which amyloid nucleation score does the source give for TDECWIGYFNSSAI here?
**A.** -0.053 ± 1

**Q.** For TDGELDSPQ, which amyloid nucleation score is on record?
**A.** 0.165 ± 0.37

**Q.** For TDLCCRLSIQLINHVYHSCL, which amyloid nucleation score is on record?
**A.** 0.351 ± 0.74

**Q.** For TDLSLWNTILRVAG, which amyloid nucleation score is on record?
**A.** 0.05 ± 0.31

**Q.** With TDRLRFIYSGGVEFFVPVLL as the substance, how does the amyloid nucleation score read?
**A.** inactive

**Q.** Which amyloid nucleation score does the source give for TDVRGDTSRGLGSFKLFRIM here?
**A.** -0.354 ± 0.76

**Q.** Which amyloid nucleation score does the source give for TDWGTLARMGLASLC here?
**A.** inactive

**Q.** For TDWVW, which amyloid nucleation score is on record?
**A.** 0.593 ± 0.2

**Q.** With TDYQSVVDTVG as the substance, how does the amyloid nucleation score read?
**A.** 0.019 ± 0.32

**Q.** Which amyloid nucleation score does the source give for TEASLMWRYWDGDPWQWSFD here?
**A.** inactive

**Q.** Which amyloid nucleation score does the source give for TEEWFFCPRLTLKFLKEVHK here?
**A.** 4.94 ± 0.092

**Q.** With TEGYNMCDWCSSSLVKSVRM as the substance, how does the amyloid nucleation score read?
**A.** -0.223 ± 0.49

**Q.** For TEILILMIGLIAGLYCEIRF, which amyloid nucleation score is on record?
**A.** -0.231 ± 0.79

**Q.** With TELHLTDFWLRIMRQLFRFS as the substance, how does the amyloid nucleation score read?
**A.** 1.61 ± 0.52

**Q.** Which amyloid nucleation score does the source give for TFCSPR here?
**A.** 0.49 ± 0.5

**Q.** For TFELNLLVPAPNCRFHDLRR, which amyloid nucleation score is on record?
**A.** 1.46 ± 0.22

**Q.** With TFFIMEIFDFC as the substance, how does the amyloid nucleation score read?
**A.** 1.8 ± 0.15

**Q.** Which amyloid nucleation score does the source give for TFGRRATDNAASMPVSMRGR here?
**A.** 0.424 ± 0.64

**Q.** With TFILFGRFEQTKVSVW as the substance, how does the amyloid nucleation score read?
**A.** 3.67 ± 0.075

**Q.** For TFLWLT, which amyloid nucleation score is on record?
**A.** 2.33 ± 0.09

**Q.** Which amyloid nucleation score does the source give for TFLYREVPLRRYR here?
**A.** 0.135 ± 0.63

**Q.** Which amyloid nucleation score does the source give for TFRCVVRPLGMRSVLMAGSG here?
**A.** 0.852 ± 0.47

**Q.** For TFVRVPFWFRKN, which amyloid nucleation score is on record?
**A.** 9.788 ± 0.071

**Q.** With TFWNFGLAVQTARGIWALSW as the substance, how does the amyloid nucleation score read?
**A.** 6.57 ± 0.082

**Q.** For TFYSLGLNISMFSLPGLAGY, which amyloid nucleation score is on record?
**A.** 0.683 ± 0.35

**Q.** For TFYSSWWSNSECYCS, which amyloid nucleation score is on record?
**A.** 2.45 ± 0.1

**Q.** For TGAIRGGSVQRVHSLINPRM, which amyloid nucleation score is on record?
**A.** -0.414 ± 0.55

**Q.** Which amyloid nucleation score does the source give for TGCMSMLFKCAGMCQWWSGG here?
**A.** 6.71 ± 0.086

**Q.** For TGDPTLLMAYSRSYVWRSER, which amyloid nucleation score is on record?
**A.** 1.28 ± 0.3

**Q.** With TGHKECVW as the substance, how does the amyloid nucleation score read?
**A.** 0.762 ± 0.47

**Q.** With TGHLEEMYKYDALYSSAKRA as the substance, how does the amyloid nucleation score read?
**A.** 1 ± 0.48

**Q.** For TGLGLIGLHSLVKVSRV, which amyloid nucleation score is on record?
**A.** -0.255 ± 0.65

**Q.** With TGLNLFRDSQTGELGGGYTR as the substance, how does the amyloid nucleation score read?
**A.** 5.495 ± 0.049

**Q.** For TGNVCQDEVNAIGRFP, which amyloid nucleation score is on record?
**A.** -0.864 ± 0.38

**Q.** For TGVCPR, which amyloid nucleation score is on record?
**A.** -0.674 ± 0.5

**Q.** With TGYLVWFG as the substance, how does the amyloid nucleation score read?
**A.** 0.951 ± 0.3

**Q.** Which amyloid nucleation score does the source give for TGYVE here?
**A.** 0.293 ± 0.26

**Q.** With THIITWSVNFTKGWQCFESQ as the substance, how does the amyloid nucleation score read?
**A.** 1.36 ± 0.38

**Q.** Which amyloid nucleation score does the source give for THRTGLDK here?
**A.** 0.319 ± 0.36

**Q.** With THVDFLWIVNLGGSHI as the substance, how does the amyloid nucleation score read?
**A.** 7.519 ± 0.041

**Q.** Which amyloid nucleation score does the source give for TIGFLFLVNWPSWNFLEEVF here?
**A.** inactive

**Q.** For TIIKDIVIVDVFSSN, which amyloid nucleation score is on record?
**A.** 1.53 ± 0.15

**Q.** For TITNCP, which amyloid nucleation score is on record?
**A.** inactive

**Q.** With TIWGYARC as the substance, how does the amyloid nucleation score read?
**A.** 2.67 ± 0.11

**Q.** Which amyloid nucleation score does the source give for TIYHSGRCLRKKGRELW here?
**A.** -0.139 ± 0.37

**Q.** With TIYPDMETHLV as the substance, how does the amyloid nucleation score read?
**A.** -0.075 ± 0.49

**Q.** For TLAFVNNYDLRLELDRIEVP, which amyloid nucleation score is on record?
**A.** inactive

**Q.** With TLCGFNKGAAIGWCTWNSEK as the substance, how does the amyloid nucleation score read?
**A.** 4.05 ± 0.13

**Q.** Which amyloid nucleation score does the source give for TLCMRLN here?
**A.** 1.64 ± 0.086

**Q.** Which amyloid nucleation score does the source give for TLETSNILFYGEDVKLSSQV here?
**A.** 0.078 ± 0.34

**Q.** With TLFSLREGLFNGIWTVSLSW as the substance, how does the amyloid nucleation score read?
**A.** -1.09 ± 1.1

**Q.** Which amyloid nucleation score does the source give for TLGKVGHYRRNNNMPVARFD here?
**A.** -0.11 ± 0.74
